A protein production outcome set (Wang et al. 2014)

Experiment: label from the status in PepcDB records

Sequence	protein production
MKDMKMQSSPETMMTRIPTPDPHSTGVREDAMDSVCKPWKLYENPYYCSSQSQQHQHQRKAFIWDLNFIKVFMESELGKAQDEIKELKAELDYERKARRRAELMIKKLAKDVEEERMAREAEEMQNKRLFKELSSEKSEMVRMKRDLEEERQMHRLAEVLREERVQMKLMDARLFLEEKLSELEEANRQGERERNRMMKPKILERACSSPARRRCENPQIKRGINPFPRVMRAIRSKSEKWGSKLECQKVQLKILLRQKTTPRCTPLLSSPPP	failed
METKTVAITMGDPAGIGPEIIVKALSEDGLNGAPLVVIGCLATLKRLQAKGITPNVELRAIERVAEARFAPGIIHVIDEPLAQPEALEAGKVQAQAGDLAYRCVKRATELALRGDVQAIATAPLNKEALHLAGHNYPGHTELLATLTHSRDYAMVLYTDKLKVIHVSTHIALRKFLDTLSTARVETVIGIADTFLKRVGYVKPRIAVAGVNPHAGENGLFGDEETRILTPAITDARAKGMDVYGPCPPDTVFLQAYEGQYDMVVAMYHDQGHIPLKLLGFYDGVNITAGLPFIRTSADHGTAFDIAWTGKAKSESMAVSIKLAMQLA	not failed
MKKISIEERPDWRATAEREGFNFHTIDGERYWDERGYYLFTEQQITRDLEAPTQALHQMCMDAVARVVDSEELLHQLAIPPAFFDVIQTSWKQGHPHLYARFDFAYDGTGPAKMYEINADTPTSLMEAGAFQLLWLEEQMARGVLPAHASQFNSIAEDLVRAFAEFPGASPFYFAAMSGSVEDRVTTDFLRRMAAHVGIDARHIDIEDIGLNDQGRFVDLDGRWIERLFKLHAWEHIFHEAFGKNVTASGTQFVEPAWKAILSNKGILPLLWQFNEGHPNLLPSRVDQDVTKPVPKGWVRKPYFSREGANIEMRTPGDQVIAVDGPYTDAPYILQAYSPLPKFGDSYTLIGSWVIGDLASGIGIREDDSLITKDTSRFLPHVVID	failed
MLTNIERAKLQLIDETNDMVIITKAEPLDAPNGPEVVWVNKAFENISKYKANEIIGQTPRILQGKETNQNTLKMIKEALKAQTNINVDLLNYTKDGTPYWISFSIVYLRDGQGNLCYLGAIEKDITALKNLNFKLSEKAKTDPLTNVYNQENFFIAGNEAIKNFHQNQEAVGLLFFDVDDFKGINDTQGHIYGDMILKKVAQESLKLVRKTDNVFRYGGDEFAIIFSGIDVKILERKAQQLQKKLAKSHISVSIGGTISIQSDKSINTLLARADEALYYVKANKKGLFFIAE	failed
MRRTNTFAVRPLSDDDERLLLDLLDASASLWNELNYERRQQFFDGESVWDTADYRKQYVGVLGSATAQQVIRKNKSAWQSFFAARENGEDTAPPGYWGNEDDGRELRTFIRHDLYTLDTGERSRVEIPVGQDLKDEYGLGYHDRLRLEVAGDPKWDGEQGRLEIQYGETDDTFRAFQPVTVPDSRQDSPLASHEAALDVGANNLVACTTTTGEQYLYEGRGLFAHFRETTREIARLQSKLREGRYSSQRIRRLYRKRTRRRDHAQDALVRDLMERLYAEGVDTVYVGDLTDVLSTHWCAEVNAKTHQFWAFRAFIERLSHTAEEYGITVEVRSEADTTRTCPACGEQDDTDRDGDVFRCPCGHEAHADLCASRTFLERQTGKPVGSMARPVRLKWDDHNWSEIPHSPERARPNEKRTNQSTDSQDGKLASVGTA	failed
MNGYRRKNMRLINTTSSHQHLVKNQLKHTDATLVETYSAGNTDVIFTQAPKHYELLISNKHRAIKDNEIETIREFFLKRKINKNIILLDQLKTLHTANLIEISIPIAD	failed
TTAKPQQIQALMDEVTKQGNIVRELKAQKADKNEVAAEVAKLLDLKKQLAVAEGKPPEAPKGKKKK	not failed
PNFSHWGPPRIVEIFREPNVSLGISIVGGQTVIKRLKNGEELKGIFIKQVLEDSPAGKTNALKTGDKILEVSGVDLQNASHSEAVEAIKNAGNPVVFIVQSLSSTPRVIP	not failed
NSVNCDELGPLPPGWEVRSTVSGRIYFVDHNNRTTQFTDPRLHHIMNHQCQLKEPSQPLPLPS	failed
MLTDMQRDSASSSTVTTEQIVYGALPLTTINEPECRAIAITSINGSATLSGVSGPMGDQTDADLLIQLRGWADAIVVGAETARKENYGPVVLPHGIKNQRQKLGRCGLPKLTLLSKSLYFDFSSELFSPDLPSELSPLVITQQPANNSEQWDQRLQKLIDVGVEVIVAPTSTNPLKIAFDALHARRLKKISIEGGPSVYRQALSLGIVDRLHLTIAPNIICPVESPLFGKISDDSFTTRLVLEMLSSSPNGLIFSRYKVIRDTLGNPTQ	not failed
MMQSITTFMAALGKYDFLQSALITAIMVGVMSGIIGSFIILRGMSMMGDAISHAVLPGVAVAYMLGINVLIGASVFGILAASLIGFVASRSKIKTDTSIGIVFSAFYALGFILISLAESSTNLHHILFGNILAVSDTDMMTTTVVLGLVILFVAFFYKELLITSFDPTFAKTYGLKVQLLHYALMLVLTLVTVSALQTVGIILVVAMLITPAATAFLWTERLAVMLGLSALIGVLSSVVGLYLSYTLNWASGPAIVLVAAIFFGISFIISPKQALLPTLWKGQAAARRVTA	failed
MEDIFSKRKTLRTIKADTSDYFIPLFHTLAVFLSTKETIITKRFLEHIMKNLIALTLLLGGSTLLCAQKPAKTPATYKPVKSEMYRKGWIDFNKNGVKDVYEDPSAPLEARIENLLQQMTLDEKTCQMVTLYGYKRVLKDDLPTPEWKELLWKDGIGAIDEHLNGFQQWGLPPSDNAYVWPASRHAWALNEVQRFFVEDTRLGIPVDFTNEGIRGVESYRATNFPTQLGLGHTWNRELIRQVGLITGREARMLGYTNVYAPILDVGRDQRWGRYEEVYGESPYLVAELGIEMVRGLQHNHQVAATGKHFAAYSNNKGAREGMARVDPQMSPREVENIHIYPFKRVIREAGMLGVMSSYNDYDGIPVQGSYYWLTTRLRGEMGFRGYVVSDSDAVEYLYTKHGTAKDMKEAVRQSVEAGLNVRCTFRSPDSFVLPLRELVKEGGLSEEVINDRVRDILRVKFLIGLFDAPYQTDLADADREVEKEENEAIALQASRESIVLLKNAGELLPLDINSTKKIAVCGPNANEEGYALTHYGPLAVEVTTVLEGIQEKTKGKAEVLYTKGCDLVDAHWPESEIIDYPLTDDEQAEIDKAVENARQADVAIVVLGGGQRTCGENKSRTSLDLPGRQLQLLQAIQATGKPVVLILINGRPLSINWADKFVPAILEAWYPGSKGGTALADILFGDYNPGGKLTVTFPKTVGQIPFNFPCKPSSQIDGGKNPGPTGNMSRINGALYPFGYGLSYTTFEYSDLDITPRVITPNESATVRLKVTNTGKRAGDEVVQLYIRDVLSSITTYEKNLAGFQRIHLEPGEAQELSFTIDRKHLELLDADMKWVVEPGDFVLMAGASSEDIRLNGTLTVEDYQTRAKAIEAQKPAKRVSASTNPEDAENVLDEKINTAWQGNKGDYITFALKNGAKVDKVAIAFTRDNNLPATFEIQLSGGGGQFLTVYSGTVSEYGKLISYPFKGTTASDLRIVLNDDRVSIAEVKF	failed
MNIPTTTTKGEQAKSQLIAAALAQFGEYGLHATTRDIAALAGQNIAAITYYFGSKEDLYLACAQWIADFLGEKFRPHAEKAERLFSQPAPDRDAIRELILLACKNMIMLLTQEDTVNLSKFISREQLSPTSAYQLVHEQVIDPLHTHLTRLVAAYTGCDANDTRMILHTHALLGEVLAFRLGKETILLRTGWPQFDEEKAELIYQTVTCHIDLILHGLTQRSLD	not failed
MAELDIGQHCQVQHCRQRDFLPFVCDGCSGIFCLEHRSKDSHGCSEVNVVKERPKTDEHKSY	not failed
MGKRIAFWFEFASTYSYLSAMRIERAAADLGVTIAWEPFLLGPIFAAQGWTSSPFNLFPAKGRYMWRDMERLCARQGLPLTRPDPFPQNGLPAARLAMVAREMGHIAPFVRAVYAAQFGRGLVISDPQVLAECWAEAGLPPEAMEQAKSPEIKAALFAQGERAAALDLFGAPSFVVGEEVFWGDDRLDQALALAAQS	not failed
MPNAIFFYRIQRWLYLHHIPFLPKLIQLLIFLIYNTKITADSKIGKGSYFVCKGISTVLIPGTEIGENCVLGLRFSTVRKFPYKNVPKIGNNVFIGPNVVICGPVEIGDNCIVAANSFVDKSLRGG	failed
MDHGVVLLSDDQGLQWRQASSVPLSTPLTGVSFVDAKRGWAVGHWGAILITTDGGESWQVQRLATEEDRPLFAVHFFNARQGVAVGLWSLVLTTEDGGQTWSEQPLQAPPGAKRADLNLMGLFADSRGTLYATAEHGQVLHSEDQGKNWRYLDTGYEGTLWAGAVLADGRLLLGGQRGTLLQGSADGKGFHRVPTQSKGSVTCVAVAGSRVLAVGLDGLSVQSSDGGHSFQETQTADGLSLTAALFNAEGVPVLFSRRGVMPYQELEHHHHHH	failed
MAKKKIVAVIQARMGSSRLPGKVLMTVAGKPLLEHIIDRLRRSRTLDDIVIATSDKPCDDPLVDFAQTRGVTLVRGSEDNVLLRFNKAAEEVDADVIIRVTGDAPLVDPEVMDRLVRTLLQEGAEYCTIEAGINSIHEGFCTFTRGALKRLMTEAPDDPVAIEHVTAYFIAHPDKFHIARIPVGNEHRFKGARLSVDTPADVQFFDELYRLLGVPAGDADIADVVRLLRNNPHLLQINQHVYQKKATDRSHKVLIRCDGDSRTGLGHVVRCLALAGELREKQGCGIIFAMASGEPGMKMVRQADFPLERQEDADEGEWMDGLISRHHPDVLILDIRNDLPVEKVDSWREDGILVVGIDDPTPRRLAADLLFYPPIPQISELNWNNFNGEICSGWEWVLLRKQFCAPCPPRNNNPPALLLTMGGSDPANFTVRVLRVLDELQNDFETIVVIGAGFVHEEDLQQFLSQARRHYRIEREVSDMASLMRQADLAIASFGVTAYELAASGVPAVYLCLTPDHARSASKFVDDRLAFSCGVLEECSNERIIESTLSLLDSRELRHEVGRRACATVDGYGATRIATKIVEKLERMHSSHGLEHHHHHH	failed
MTVDSNTSSGRGNDPEQIDLIELLLQLWRGKMTIIVAVIIAILLAVGYLMIAKEKWTSTAIITQPDAAQVATYTNALNVLYGGNAPKISEVQANFISRFSSAFSALSEVLDNQKEREKLTIEQSVKGQALPLSVSYVSTTAEGAQRRLAEYIQQVDEEVAKELEVDLKDNITLQTKTLQESLETQEVVAQEQKDLRIKQIEEALRYADEAKITQPQIQQTQDVTQDTMFLLGSDALKSMIQNEATRPLVFSPAYYQTKQTLLDIKNLKVTADTVHVYRYVMKPTLPVRRDSPKTAITLVLAVLLGGMIGAGIVLGRNALRSYKPKAL	not failed
MGLSAVAVFAISGALDAARQKMDILGFMLIGTATGLGGGTLRDLLLGNVPVFWIREPIWIIVCLVSTAITYFIAPKLASITRALIWMDAVGIALFAVVGTEIALEFGTSPLIAICMGVMTASFGGIARDVLSGSNLTLMNEELYITTTVAGSVMYLWLNTLSLPANYDLIGGFFIAFILRALAIRFHIKLPNHYRKD	failed
MKIVSIKIKNYRVFEDIKITNIPSFCVIIGANGTGKSTLFDVFGFLRDALKNNIRQALQIRGGFKEVVTRGKESEDIEIELKFRMEILATERLVTYILIIGQEGKKPVIKREILRYKRGEYGSPFHFLDFHNGQGYAIRNEESFESDEELEREEQKLESADILAIKGLGQFQRFKAANAIRSLIENWHVSDFHISDARGSKAALYAEHLSPTGDNIPIVAQYIYQEHPEIFAEILQRMKQRVPGISNVEAKEIEGGSLILKFQDQAFEDSFVDLYVSDGTIKMFAYLILLFDPKPHPLLCVEEPENQLYPTLLRELAEEFASYAHRGGQVFVSTHSPDFLNAVPLDSIFWLIKIQGVTKVEKAADHEVLRNLIAAGDLPGYLWNQGWFEGVAPLEHHHHHH	failed
MSPIALARLLTLAAVWGASFLFMRIIAPELGTVPTAFFRVSIACLGLIVILAAARVRWNFQGKLGACLVLGMINSGIPATFYSVAAQVLPAGYSAIFNATTPLMGVLVGVLFFREPMTLAKLCGIFLGLFGVGILSGAGPVALDMALLQGALACLAATTCYGFAGFLARRWISGLDSRLSALGSMLGATLMLTPLFGWSALTQPPASWGGWEVWLSLLGLGLLCTAFAYILYFRLLEEIGPVKASTVTFLIPVFGVLWGAWLLNEPLSMAHLYGGLLIGLALWLVLRPARS	failed
